The target of test [1] is MPL-zalpha11 chimera (MPL extracellular and transmembrane domains fused to the zalpha11 intracellular signaling domain) (human). The test can be described thus: cell-based or functional assay.
In test [2] the target is factor present in the activated CD3+ selected human T-cell conditioned media. The test can be described thus: cell-based or functional assay.

With thrombopoietin (TPO) (ligand), in test [1], the proliferation of BaF3/MPL-zalpha11 cells (Alamar Blue), fold over background (fold over background) amounted to 10. In test [2], “zalpha11-Fc4 soluble receptor (zalpha11 extracellular domain fused C-terminally to human IgG Fc, Fc4) (from UniProt Q9HBE5 20-237) (Fc fusion)” registered an inhibition of conditioned-medium-driven BaF3/Zalpha11 cell growth; soluble receptor concentration giving complete inhibition of 10 µg/mL and a titration of soluble receptor; lowest concentration completely inhibiting BaF3/Zalpha11 growth of 1.5 µg/mL.

These data come from patent US20030148447A1.
